The record followed here is paper PMC4559766 (Scientific Reports, 2015).

Assay [1] deals with T1, Human serum albumin (human, UniProt P02768 25-609).
T1 construct: serum albumin, human; also called HSA; source: bought: Sigma
Briefly: SPR; BIAcore 3000; peptide serially diluted and injected; KD by BIAcore kinetic evaluation Ver. 4.1; method by refs 48, 49. As to conditions: both partners purified.

Assay [2] concerns the target T2, Recombinant human TNFRI, disulfide-linked homodimer (human, UniProt P19438 30-455). Described as above. As to conditions: both partners purified.
In assay [3] the target is T3, Mouse serum albumin (mouse, UniProt P07724 25-608).
T3 construct: serum albumin, mouse; also called MSA; source: bought: Sigma
T3 sequence (P07724 25-608): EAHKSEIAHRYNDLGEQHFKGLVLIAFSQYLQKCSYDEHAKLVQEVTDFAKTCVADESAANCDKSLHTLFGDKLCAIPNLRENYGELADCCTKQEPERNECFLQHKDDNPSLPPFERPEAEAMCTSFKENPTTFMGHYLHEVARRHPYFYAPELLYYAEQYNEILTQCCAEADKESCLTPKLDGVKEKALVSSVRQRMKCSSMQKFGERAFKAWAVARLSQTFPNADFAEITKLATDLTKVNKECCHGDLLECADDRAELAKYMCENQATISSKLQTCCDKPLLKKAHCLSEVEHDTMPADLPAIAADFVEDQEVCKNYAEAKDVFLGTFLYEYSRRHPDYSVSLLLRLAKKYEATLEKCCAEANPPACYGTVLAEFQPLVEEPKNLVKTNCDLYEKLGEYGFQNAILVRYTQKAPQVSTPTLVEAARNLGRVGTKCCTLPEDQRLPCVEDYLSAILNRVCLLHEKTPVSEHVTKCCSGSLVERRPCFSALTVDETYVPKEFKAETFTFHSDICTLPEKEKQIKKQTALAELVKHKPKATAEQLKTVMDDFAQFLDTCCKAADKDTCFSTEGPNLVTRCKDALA
The assay is described as above. Particulars: both partners purified.

The target in assay [4] is T4, Human TNFRI of ML-la cells (human, UniProt P19438 30-455).
T4 construct: also called p60; source: endogenous, on ML-la cells (human myelomonoblastic leukemia cell line)
T4 sequence (looked up): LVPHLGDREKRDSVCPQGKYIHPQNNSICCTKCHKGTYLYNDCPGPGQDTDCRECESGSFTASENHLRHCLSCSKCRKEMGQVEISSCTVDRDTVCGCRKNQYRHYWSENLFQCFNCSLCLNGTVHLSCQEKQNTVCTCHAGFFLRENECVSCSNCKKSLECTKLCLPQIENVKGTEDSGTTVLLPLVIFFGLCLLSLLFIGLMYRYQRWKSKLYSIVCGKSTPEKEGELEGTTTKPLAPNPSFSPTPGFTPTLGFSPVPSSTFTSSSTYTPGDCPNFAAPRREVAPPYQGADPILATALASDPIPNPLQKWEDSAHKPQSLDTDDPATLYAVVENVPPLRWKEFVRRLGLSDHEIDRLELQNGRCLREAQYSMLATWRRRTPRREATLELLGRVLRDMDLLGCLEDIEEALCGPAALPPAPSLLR
As to the kind of experiment: radioligand binding; competition: ML-la cells (1 × 10^6 cells/well) preincubated with anti-p60 or anti-p80 antibody (25 °C, 30 min) to block TNFRI or TNFRII, then 125I-labeled TNF α with unlabeled TNF α or RMP16 (10^-11 to 10^-5 M) in RPMI 1640 with 10% fetal calf serum, 25 °C, 1 h; cell-bound radioactivity counted. Particulars: one partner purified.

Assay [5] concerns the target T1, Human serum albumin. As to the kind of experiment: ITC; VP-ITC calorimeter; peptide serially diluted and injected; KD by Microcal ORIGIN Ver. 5.0; method by refs 48, 49. Particulars: both partners purified.
Assay [6] deals with T2, Recombinant human TNFRI, …. The description is as above. Particulars: both partners purified.
Assay [7] concerns the target T3, Mouse serum albumin. The description is as above. As to conditions: both partners purified.
For assay [8], the target named is T1, Human serum albumin. As to the kind of experiment: cell-based or functional assay.

B1: RMP16, recombinant TNF α-derived polypeptide (peptide)
chain: MWQRPSSWIEGRLLTHTISRIAVSYQTKVNLL
notes: P16, TNF α segment of amino acid residues 75-94, human; also called recombinant peptide RMP16
In the case of B1, the equilibrium dissociation constant (Kd) was 875 nM with Human serum albumin [1]; 21.3 nM in assay [2]; 925 nM with Mouse serum albumin [3]; 822 nM with Human serum albumin [5]; 20.4 nM in assay [6]; 894 nM in the assay with Mouse serum albumin [7]. Besides, the IC50 in assay [4] turned out to be 15.1 nM. The “in vitro Factor Xa enzyme digestion half-life of RMP16 (10 μM) in the presence of HSA (2 μM), against 9.72 h without HSA” value in the assay with Human serum albumin [8] was found to be 15.8 h.
